Results: the RNAGym collection of RNA variant scans (doi:10.1073/pnas.2313332121)

B1: TPR t1 (parent)
chain: GACCAAUCUGCCCUCAGAGCUCGAGAACAUCUUCGGAUGCAGAGGAGGCAGGCUUCGGUGGCGCGAUAGCGCCAACGUCCUCAACCUCCAAUGCAUCCCACCACAUGAUGAUGCCUGAAGAGCCUUGGUUUUUUG

Variants of: B1
Assay: polymerase ribozyme fitness, log enrichment relative to wild type (log ratio); higher = more active; in vitro selection for triplet polymerase activity
In short: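 Each subunit of a heterodimeric triplet polymerase ribozyme was represented by a PCR-built, transcribed mutant library that underwent triplicate single-round in vitro selection with frozen incubation at −7 °C. Extended constructs were recovered by gel excision, streptavidin-bead capture and RT-PCR, and Illumina sequencing of input and output libraries kept genotypes with ≥10 input reads and ≥1 read per output. Fitness is the logarithm of genotype enrichment relative to wild-type enrichment, from inverse-variance-weighted replicate averages, with a logarithm base of 2.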

Variant | polymerase ribozyme fitness (log ratio)
U30C U78A U106C A121U | -2.15
A29G C86A U112A C123G | 0.207
C31G A37U C97A U116G | -7.62
U32A C40U C101A | -4.24
C31G C99G | -6.63
U32C A100C | -1.02
U32A C72U | -5
U32A C72G | -3.95
C31U C72U U112A | -3.81
A29U C49U C64U U106A C115A U132C | -2.46
A29C A37G G47U C72U C101U G110U | -6.59
A29G U38G C73G C82U A100G C115G | -7.25
U30G C34G C56A U109A A111C G117U U131C U132C | -6.83
U33A U59A G61U U106G | -5.96
U32C G61A U67G C82U | -7.29
C31A U54C U96A A111G | -5.95
U32C C40G G57U G117C G120A | -6.56
C31U U81C G120U | -6.22
C31U A46C G113U A119G | -5.51
C31A G44U C101U C124G | -5.62
A29C G71C A95U C124U | -4.83
C31G A50C U112A | -6.45
C28U C82A | -2.3
C28U C56G C73A | -4.7

Variant | polymerase ribozyme fitness (log ratio)
A29G A50G C99G A105G C124A | -7.1
U32C G48A G52U A66U C114A | -5.75
U32A U33C A121U G135A | -4.41
U33A G36U | -4.74
C28U G52C C56G | -3.11
C28U U87A | -2.17
A29G A111C | -0.114
C28G G48A A83C A84C | -3.22
U32C U33A C104A U109G C114U A121U G122C | -5.8
U32C G69C C80U C101U C102U | -5.78
U33A C72U | -4.34
C28U G120A | -1.19
U32C G60C A75C C79G A118U | -1.88
U30A A41C G113A C124A | -5.47
A29G C104A | -2.84
A29C A50U C104A C114G | -8.27
U30C G42U | -3.85
U32A A43C G63C | -6.22
C31G C124G | -6.98
A29U G48C C82G A118U | -2.03
A29C U54C | -1.78
C28U A121C | -0.0887
A29U U81C C124A | -0.606
U32C G47U G48U C76U U112G | -4.6

Variant | polymerase ribozyme fitness (log ratio)
A29G G60A C86U | -2.06
C28U C56U C73G U78C C101A | -5.44
U33A G36U G69U C99G | -5.44
C31G G35C A43G G110C | -7.68
U32C G63C | -0.346
A29U C114G | -4.29
A29U C72U A84C U87C U112C | -1.31
C28U C70U | -2.13
U33A A37C | -4.7
A29G G45C U106A | -1.67
C28G G110U C124U | -0.355
A29G C56G | -1.53
A29G U87C G113U A121C | -3.46
C28U G45A C49G C72U G122A | -4.63
A29U G48U C73G U112A | -0.987
U32A C34G | -6.88
C31U U78G C101G C104A G110A | -5.57
C28U C40A C123A | -3.16
C31U A66C U78G U106A C123A | -2.21
A29U C40U C62A A83C | -3.08
A29U U32C G61C C70G C98A C114U | -5.96
A29C G69U C99U | -3.95
C31G G39A G107C U133G | -2.1
A29U G48A A111C | -2.11

Variant | polymerase ribozyme fitness (log ratio)
U30C G39A G57U G69U U130G | -5.29
A29U G47U | -3.05
C31A C72G | -5.43
A29G A46G | -1.09
C31U C123A | -4.45
C28G G60U | -2.56
C31G A111U C114U | -6.64
U32C G63A A74U | -3.86
C31U G47U | -6.27
C31A G63U C88G A121U | -6.64
A29U C53A U54C C76U C85A U131C | -3.17
C28U C56A | -1.65
C28G C82U | -2.1
A29G U116G | -2.77
U32A C56G | -3.79
U32A C56A | -3.44
C28U U55A G71C | -2.75
A29U C62G | -2.45
U32C G60A C97A C124U U131A | -4.71
A29U G47A C86G | -2
C28U G93A | -1.92
A29U C99G A119G G120C | -6.66
U32G A68U C80A C101U A111U U126G | -6.67
C28U A41C G57C | -2.88

Variant | polymerase ribozyme fitness (log ratio)
U30A C104A | -6.42
C28U C72G G110C | -1.52
C28U C104U | -2.27
C31A C73U | -5.76
A29U A43U | -3.3
A29G C76U G77C | -2.58
C31G C88G G110A U126G | -6.03
A29G G71A U92C U129C | -4.75
C28G C73U | -2.15
C28G U32C C56G G117A | -5.54
A29G G69U | -0.507
U30G C64U A121G | -4
C31G C34G C97A C102A G113A | -6.66
C28G G39U C53U G63C C124A | -3.26
U32C G113U | -2.9
U32C G71A C73U | -1.78
C31U G69U C73U A100U | -3.8
C31U C86U | -4.08
A29G A37C | -2.19
A29U G61C G110U | -3.06
A29U G44U G60A G113U A118G U131G | -5.8
A29G C73A | -1.67
A29G G35C G45A A100G U112C U116C | -7.03
A29C G36U G69C G77A C97U A105U U106A | -5.4

Variant | polymerase ribozyme fitness (log ratio)
U32G C49A C70U A74G A83G G93C C114A U125G | -7.4
A29U C101A G110A A118G A121G | -4.96
U32C A41C | -1.24
C31U U59G C73U | -5.82
A29U A46C G117C | -4.13
C31A U32C C123G | -3.17
C28U C123G | -0.0468
U30C U78A U96A | -5.15
A29U C62U A74C U81C C124A | -1.11
C28U C49G U129A | -5.15
U32G G39A U106C | -4.98
C28G G69U A121C | 0.386
A29G G39U C72G | -3.09
A29U C70U | -2.15
C31U C53U | -4.91
U32C A46G U109A | -3.86
C31U C49U C104U C115A | -4.23
C31U U54G U59C A103C A111C | -5.45
A29U U92G U109A C115U U130A | -5.3
C28U C73G G93C | -3.34
A29U C53U C79U A111C G120C | -3.26
A29G C53A A91G C98A A111G | -7
U32C G42C C123G | 1.74
U30G A43C C104A A111U | -6.22

Variant | polymerase ribozyme fitness (log ratio)
A29G U55G G58A C72G U131C U133G | -2.75
U32G C82U A121C | -6.01
C31G G36A G52A C56U C115G | -7.46
C31A G107C | -4.91
A29G C56U C101G | -6.01
C31U C115A G120A | -4.78
C31A C88G | -4.98
U30C G71U | -3.2
A29G G35C C98G | -3.4
C28U C53U U92C U106A U133A | -3.09
U30C A50G A74G C123U | -3.32
C28U A108G | -4.76
U32C C53U A103C | -4.2
C28G C123U | -0.975
C28U C124A | 0.0271
C28U C124U | -0.485
C28G U78C | -2.53
C28U A41C C53G | -3.32
C31U C82A | -5.41
C28U | -1.69
C28G C53A C72A | -3.19
U32C C97A C124U U131A | -4.33
A29U U38G C88U | -3.31
